In PMC7954794 (2021):
No end group written: not given here.

Tests used:
Test in all cases: FP
[1] = biological target: NCK2 1|3|2 full-length recombinant protein (SH3-shuffled, tag-free) (mouse, UniProt O55033 1-113; O55033 198-256; O55033 171-197; O55033 114-170; O55033 257-380)
[2] = biological target: NCK2 2|1|3 full-length recombinant protein (SH3-shuffled, tag-free) (mouse, UniProt O55033 114-170; O55033 60-113; O55033 2-59; O55033 171-380)
[3] = biological target: NCK2 3|1|2 full-length recombinant protein (SH3-shuffled, tag-free) (mouse, UniProt O55033 198-256; O55033 60-113; O55033 2-59; O55033 171-197; O55033 114-170; …)
[4] = biological target: NCK2 full-length recombinant protein (mouse, WT, tag-free) (mouse, UniProt O55033 1-380)
[5] = biological target: NCK2 2|3|1 full-length recombinant protein (SH3-shuffled, tag-free) (mouse, UniProt O55033 114-170; O55033 60-113; O55033 198-256; O55033 171-197; O55033 2-59; …)
[6] = biological target: NCK2 3|2|1 full-length recombinant protein (SH3-shuffled, tag-free) (mouse, UniProt O55033 198-256; O55033 60-197; O55033 2-59; O55033 257-380)
NCK2 3|2|1 full-length recombinant protein (SH3-shuffled, tag-free), sequence (O55033 other isoform, or with tags, fused parts or gaps): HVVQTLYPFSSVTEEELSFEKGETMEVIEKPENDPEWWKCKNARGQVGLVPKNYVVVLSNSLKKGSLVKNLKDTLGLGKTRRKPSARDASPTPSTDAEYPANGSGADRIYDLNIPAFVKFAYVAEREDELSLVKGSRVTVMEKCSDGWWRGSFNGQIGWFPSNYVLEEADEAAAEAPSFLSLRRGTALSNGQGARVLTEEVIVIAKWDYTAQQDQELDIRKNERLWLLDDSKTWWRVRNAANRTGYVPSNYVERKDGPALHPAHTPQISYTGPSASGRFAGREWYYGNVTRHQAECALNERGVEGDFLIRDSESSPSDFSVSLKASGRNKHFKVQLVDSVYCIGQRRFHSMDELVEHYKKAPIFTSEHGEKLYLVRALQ

NCK2 2|3|1 full-length recombinant protein (SH3-shuffled, tag-free), sequence (O55033 other isoform, or with tags, fused parts or gaps): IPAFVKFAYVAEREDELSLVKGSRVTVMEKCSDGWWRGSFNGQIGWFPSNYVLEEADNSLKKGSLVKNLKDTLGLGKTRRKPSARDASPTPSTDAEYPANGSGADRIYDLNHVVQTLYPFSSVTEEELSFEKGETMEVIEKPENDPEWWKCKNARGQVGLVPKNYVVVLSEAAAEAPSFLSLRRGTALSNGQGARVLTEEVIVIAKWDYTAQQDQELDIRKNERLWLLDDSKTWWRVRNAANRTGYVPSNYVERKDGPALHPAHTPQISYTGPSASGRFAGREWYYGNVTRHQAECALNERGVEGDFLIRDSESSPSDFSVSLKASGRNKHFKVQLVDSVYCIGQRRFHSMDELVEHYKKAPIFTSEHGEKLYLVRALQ
NCK2 full-length recombinant protein (mouse, WT, tag-free), sequence (O55033 whole entry): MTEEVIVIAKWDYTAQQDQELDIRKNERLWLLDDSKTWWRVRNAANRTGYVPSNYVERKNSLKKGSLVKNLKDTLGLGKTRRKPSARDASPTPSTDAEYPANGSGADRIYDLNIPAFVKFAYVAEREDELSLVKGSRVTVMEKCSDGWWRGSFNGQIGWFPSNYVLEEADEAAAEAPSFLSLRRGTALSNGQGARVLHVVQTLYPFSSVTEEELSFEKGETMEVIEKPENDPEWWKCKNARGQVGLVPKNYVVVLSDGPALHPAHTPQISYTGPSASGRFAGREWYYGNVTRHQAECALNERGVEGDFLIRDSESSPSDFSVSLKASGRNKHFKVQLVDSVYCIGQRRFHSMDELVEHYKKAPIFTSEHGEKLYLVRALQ
NCK2 1|3|2 full-length recombinant protein (SH3-shuffled, tag-free), sequence (O55033 other isoform, or with tags, fused parts or gaps): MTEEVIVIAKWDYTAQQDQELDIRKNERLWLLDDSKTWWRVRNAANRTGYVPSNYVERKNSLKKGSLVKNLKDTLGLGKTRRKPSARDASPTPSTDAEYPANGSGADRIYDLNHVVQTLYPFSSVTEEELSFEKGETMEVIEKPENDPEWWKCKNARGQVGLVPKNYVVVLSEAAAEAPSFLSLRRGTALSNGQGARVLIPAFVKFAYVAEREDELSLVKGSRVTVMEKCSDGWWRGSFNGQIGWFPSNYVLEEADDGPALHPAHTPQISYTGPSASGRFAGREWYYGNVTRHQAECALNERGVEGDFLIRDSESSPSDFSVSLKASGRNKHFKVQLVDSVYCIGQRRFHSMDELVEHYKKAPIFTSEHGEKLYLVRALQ
NCK2 3|1|2 full-length recombinant protein (SH3-shuffled, tag-free), sequence (O55033 other isoform, or with tags, fused parts or gaps): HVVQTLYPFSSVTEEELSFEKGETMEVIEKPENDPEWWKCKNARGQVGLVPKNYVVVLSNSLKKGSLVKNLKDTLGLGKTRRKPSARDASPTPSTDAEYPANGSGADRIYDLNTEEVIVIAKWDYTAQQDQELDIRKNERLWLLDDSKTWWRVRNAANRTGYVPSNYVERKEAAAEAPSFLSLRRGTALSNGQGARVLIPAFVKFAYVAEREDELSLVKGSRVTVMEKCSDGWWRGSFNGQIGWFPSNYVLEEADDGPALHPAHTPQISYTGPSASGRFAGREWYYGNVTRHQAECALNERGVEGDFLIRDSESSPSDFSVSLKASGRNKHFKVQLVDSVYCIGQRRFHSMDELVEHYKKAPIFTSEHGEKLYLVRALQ
NCK2 2|1|3 full-length recombinant protein (SH3-shuffled, tag-free), sequence (O55033 other isoform, or with tags, fused parts or gaps): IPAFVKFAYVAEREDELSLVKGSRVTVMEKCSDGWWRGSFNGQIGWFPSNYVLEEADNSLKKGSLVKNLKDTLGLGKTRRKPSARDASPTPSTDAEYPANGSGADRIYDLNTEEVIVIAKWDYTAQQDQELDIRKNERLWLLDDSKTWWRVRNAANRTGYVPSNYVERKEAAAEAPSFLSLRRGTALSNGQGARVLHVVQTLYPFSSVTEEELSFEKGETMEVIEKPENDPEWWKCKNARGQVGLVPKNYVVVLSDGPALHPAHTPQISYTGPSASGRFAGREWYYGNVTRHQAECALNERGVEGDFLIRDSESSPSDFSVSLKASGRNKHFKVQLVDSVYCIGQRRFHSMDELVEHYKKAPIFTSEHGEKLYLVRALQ

Binder	Kd [1] [µM]	Kd [2] [µM]	Kd [3] [µM]	Kd [4] [µM]	Kd [5] [µM]	Kd [6] [µM]
RGQNKERPPPVPNPDY (also: fluorescein isothiocyanate-conjugated (position not given here)) [Cd3ε peptide (RGQNKERPPPVPNPDY), fluorescein isothiocyanate-conjugated]	13.5	18	16.2	12.7	26.3	–
DIQDKPPAPPMRNTST (also: fluorescein isothiocyanate-conjugated (position not given here)) [PAK1 peptide (DIQDKPPAPPMRNTST), fluorescein isothiocyanate-conjugated]	77.9	–	54.8	36	21.6	31.6
